These results are taken from the Immune Epitope Database (IEDB).

In assay [1] the target is HLA-A*02:12. The experiment in a line: IEDB peptide-MHC binding, purified MHC/competitive/fluorescence; filed as Kd, often an IC50 or EC50 that approximates it; ≥ and ≤ were set here for values at or beyond the usual limits of such assays. To be noted: source organism: Mycobacterium tuberculosis C.
Assay [2] addresses HLA-B*15:17. The description is as above. To be noted: source organism: Mycobacterium tuberculosis C.
The target of assay [3] is HLA-A*29:02. The description is as above. To be noted: source organism: Mycobacterium tuberculosis C.
Assay [4] has as its target HLA-B*51:01. Described as above. The settings on record: source organism: Mycobacterium tuberculosis C.
The target in assay [5] is HLA-A*02:19. The assay is described as above. The settings on record: source organism: Mycobacterium tuberculosis C.
Assay [6] addresses HLA-B*46:01. The assay is described as above. The settings on record: source organism: Mycobacterium tuberculosis C.
Assay [7] has as its target HLA-A*03:01. The description is as above. The settings on record: source organism: Mycobacterium tuberculosis C.
The target of assay [8] is HLA-B*18:01. Described as above. To be noted: source organism: Mycobacterium tuberculosis C.
For assay [9], the target named is HLA-A*69:01. The assay is described as above. To be noted: source organism: Mycobacterium tuberculosis C.
In assay [10] the target is HLA-A*24:03. Described as above. The settings on record: source organism: Mycobacterium tuberculosis C.
The target in assay [11] is HLA-B*39:01. Described as above. The settings on record: source organism: Mycobacterium tuberculosis C.
The target in assay [12] is HLA-A*02:01. The assay is described as above. The settings on record: source organism: Mycobacterium tuberculosis C.
Assay [13] has as its target HLA-A*26:01. Described as above. To be noted: source organism: Mycobacterium tuberculosis C.
The target of assay [14] is HLA-B*15:01. The description is as above. To be noted: source organism: Mycobacterium tuberculosis C.
In assay [15] the target is HLA-A*02:11. The description is as above. The settings on record: source organism: Mycobacterium tuberculosis C.
Assay [16] concerns the target HLA-A*02:16. Described as above. The settings on record: source organism: Mycobacterium tuberculosis C.
Assay [17] has as its target HLA-A*02:03. The assay is described as above. The settings on record: source organism: Mycobacterium tuberculosis C.
For assay [18], the target named is HLA-A*23:01. The description is as above. The settings on record: source organism: Mycobacterium tuberculosis C.
The target of assay [19] is HLA-B*57:01. Described as above. To be noted: source organism: Mycobacterium tuberculosis C.
Assay [20] deals with HLA-A*68:02. The assay is described as above. To be noted: source organism: Mycobacterium tuberculosis C.
The target in assay [21] is HLA-B*27:03. The description is as above. The settings on record: source organism: Mycobacterium tuberculosis C.
Assay [22] concerns the target HLA-A*26:03. The assay is described as above. The settings on record: source organism: Mycobacterium tuberculosis C.
Assay [23] deals with HLA-A*26:02. Described as above. The settings on record: source organism: Mycobacterium tuberculosis C.
The target of assay [24] is HLA-B*35:01. The description is as above. To be noted: source organism: Mycobacterium tuberculosis C.
Assay [25] deals with HLA-A*01:01. Described as above. The settings on record: source organism: Mycobacterium tuberculosis C.
The target in assay [26] is HLA-B*07:02. The experiment in a line: IEDB peptide-MHC binding, purified MHC/direct/fluorescence; filed as Kd, often an IC50 or EC50 that approximates it; ≥ and ≤ were set here for values at or beyond the usual limits of such assays. To be noted: source organism: Mycobacterium tuberculosis.
Assay [27] deals with HLA-A*31:01. The description is as above. The settings on record: source organism: Mycobacterium tuberculosis.
Assay [28] has as its target HLA-A*02:01. Described as above. To be noted: source organism: Mycobacterium tuberculosis.
Assay [29] deals with HLA-A*11:01. The assay is described as above. The settings on record: source organism: Mycobacterium tuberculosis.
The target in assay [30] is HLA-B*27:05. Described as above. The settings on record: source organism: Mycobacterium tuberculosis.
Assay [31] addresses HLA-B*48:01. The description is as above. The settings on record: source organism: Mycobacterium tuberculosis.
The target in assay [32] is HLA-B*40:01. The assay is described as above. The settings on record: source organism: Mycobacterium tuberculosis.
For assay [33], the target named is HLA-B*58:01. The assay is described as above. To be noted: source organism: Mycobacterium tuberculosis.
Assay [34] has as its target HLA-B*46:01. The description is as above. The settings on record: source organism: Yellow fever virus.
Assay [35] has as its target HLA-A*26:02. The description is as above. To be noted: source organism: Yellow fever virus.
In assay [36] the target is HLA-B*15:01. The assay is described as above. To be noted: source organism: Yellow fever virus.
Assay [37] deals with HLA-A*80:01. The description is as above. To be noted: source organism: Camelpox virus M-96.
Assay [38] concerns the target HLA-A*30:01. The assay is described as above. The settings on record: source organism: Variola virus.
In assay [39] the target is HLA-B*07:02. The experiment in a line: IEDB peptide-MHC binding, purified MHC/competitive/fluorescence; filed as Kd, often an IC50 or EC50 that approximates it; ≥ and ≤ were set here for values at or beyond the usual limits of such assays. The settings on record: source organism: Influenza A virus (A/swine/Hannover/1/1981(H1N1)).
Assay [40] deals with HLA-B*27:20. Described as above. The settings on record: source organism: Influenza A virus (A/swine/Hannover/1/1981(H1N1)).
Assay [41] addresses HLA-C*14:02. Described as above. To be noted: source organism: Influenza A virus (A/swine/Hannover/1/1981(H1N1)).
Assay [42] has as its target HLA-B*83:01. The description is as above. The settings on record: source organism: Influenza A virus (A/swine/Hannover/1/1981(H1N1)).
The target of assay [43] is HLA-B*45:06. Described as above. To be noted: source organism: Influenza A virus (A/swine/Hannover/1/1981(H1N1)).
The target in assay [44] is HLA-B*15:42. The assay is described as above. The settings on record: source organism: Influenza A virus (A/swine/Hannover/1/1981(H1N1)).

By Kd is commonly meant the equilibrium constant for the complex coming apart. The low end stands for tighter binding, the high end for weaker binding.

On to SLVAIHLAC, for which the Kd in [1], in assay [2], in [3], in assay [4], in [5] and in assay [6] was ≥ 20 µM in each case. Besides, the Kd in [7], in assay [8], in [9], in [10], in assay [11] and in assay [12] was ≥ 20 µM each time. Moreover, the Kd in [13] was ≥ 20 µM; in assay [14], ≥ 20 µM; in assay [15], 0.443 µM; in [16], ≥ 20 µM; in assay [17], ≥ 20 µM; in assay [18], ≥ 20 µM. Further, the Kd in [19], in assay [20] and in assay [21] was ≥ 20 µM each time.
For LTFLDCLYY, the Kd is 0.0005 µM in assay [2]; ≥ 20 µM in [22]; ≥ 20 µM in assay [9]; 0.111 µM in assay [13]; ≥ 20 µM in [23]; 0.0713 µM in assay [24]. Further, the Kd is 0.004 µM in assay [25]; 0.187 µM in assay [19]; ≥ 20 µM in [20]; ≥ 20 µM in assay [26]; ≥ 20 µM in assay [27]; ≥ 20 µM in assay [28]. In addition, the Kd in assay [29] is 0.0733 µM; in [30] it was ≥ 20 µM; in assay [31] it was ≥ 20 µM; in [32], ≥ 20 µM; in [33], 0.145 µM.
Take LVLAVGPAY: the Kd is ≥ 20 µM in [34], 0.544 µM in assay [35] and 0.0543 µM in [36].
With ITYLMNRFK, the Kd in [37] is ≥ 20 µM; in assay [38], ≤ 0.001 µM.
Turning to RRRFVQNAL, the Kd in [39] is ≥ 20 µM; in assay [40], 0.0013 µM; in [41], 0.21 µM; in assay [42], ≥ 5 µM; in [43], ≥ 5 µM; in [44], ≥ 5 µM.
